Legend:
DHX9 = DHX9 (UniProt Q08211); assay: HA immunoprecipitation and mass spectrometry; conditions: PC3 cells; average of three independent experiments; parent: est. 32; read off a plot
SNF2H = SNF2H (UniProt O60264); assay: HA immunoprecipitation and mass spectrometry; conditions: PC3 cells; average of three independent experiments; parent: est. 35; read off a plot
UniProt O60264, sequence (O60264 whole entry): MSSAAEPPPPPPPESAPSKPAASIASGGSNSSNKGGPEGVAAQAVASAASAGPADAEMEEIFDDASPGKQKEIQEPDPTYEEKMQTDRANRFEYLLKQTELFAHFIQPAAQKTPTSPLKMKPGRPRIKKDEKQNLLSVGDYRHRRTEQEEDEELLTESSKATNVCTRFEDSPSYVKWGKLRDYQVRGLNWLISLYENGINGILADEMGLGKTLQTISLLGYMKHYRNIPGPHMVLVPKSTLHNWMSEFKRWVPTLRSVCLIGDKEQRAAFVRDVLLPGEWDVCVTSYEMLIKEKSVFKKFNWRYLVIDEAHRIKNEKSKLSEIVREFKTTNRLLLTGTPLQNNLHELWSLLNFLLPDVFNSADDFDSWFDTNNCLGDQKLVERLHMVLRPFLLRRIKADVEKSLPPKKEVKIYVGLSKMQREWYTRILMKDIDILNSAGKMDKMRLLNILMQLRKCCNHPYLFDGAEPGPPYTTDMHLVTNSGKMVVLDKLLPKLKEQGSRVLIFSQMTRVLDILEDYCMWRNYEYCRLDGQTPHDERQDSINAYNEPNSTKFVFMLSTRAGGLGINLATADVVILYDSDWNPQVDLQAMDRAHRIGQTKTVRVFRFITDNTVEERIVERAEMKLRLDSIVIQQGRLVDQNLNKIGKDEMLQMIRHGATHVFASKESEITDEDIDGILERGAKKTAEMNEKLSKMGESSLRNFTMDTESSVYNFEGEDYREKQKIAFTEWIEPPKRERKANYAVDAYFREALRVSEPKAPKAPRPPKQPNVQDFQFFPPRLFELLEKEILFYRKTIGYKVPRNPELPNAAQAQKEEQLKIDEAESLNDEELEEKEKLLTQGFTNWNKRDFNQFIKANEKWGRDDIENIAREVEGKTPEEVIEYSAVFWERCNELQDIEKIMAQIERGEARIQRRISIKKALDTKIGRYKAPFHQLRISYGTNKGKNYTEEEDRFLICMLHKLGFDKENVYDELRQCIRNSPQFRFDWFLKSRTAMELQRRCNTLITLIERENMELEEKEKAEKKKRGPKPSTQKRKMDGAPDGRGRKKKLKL

UniProt Q08211, sequence (Q08211 whole entry): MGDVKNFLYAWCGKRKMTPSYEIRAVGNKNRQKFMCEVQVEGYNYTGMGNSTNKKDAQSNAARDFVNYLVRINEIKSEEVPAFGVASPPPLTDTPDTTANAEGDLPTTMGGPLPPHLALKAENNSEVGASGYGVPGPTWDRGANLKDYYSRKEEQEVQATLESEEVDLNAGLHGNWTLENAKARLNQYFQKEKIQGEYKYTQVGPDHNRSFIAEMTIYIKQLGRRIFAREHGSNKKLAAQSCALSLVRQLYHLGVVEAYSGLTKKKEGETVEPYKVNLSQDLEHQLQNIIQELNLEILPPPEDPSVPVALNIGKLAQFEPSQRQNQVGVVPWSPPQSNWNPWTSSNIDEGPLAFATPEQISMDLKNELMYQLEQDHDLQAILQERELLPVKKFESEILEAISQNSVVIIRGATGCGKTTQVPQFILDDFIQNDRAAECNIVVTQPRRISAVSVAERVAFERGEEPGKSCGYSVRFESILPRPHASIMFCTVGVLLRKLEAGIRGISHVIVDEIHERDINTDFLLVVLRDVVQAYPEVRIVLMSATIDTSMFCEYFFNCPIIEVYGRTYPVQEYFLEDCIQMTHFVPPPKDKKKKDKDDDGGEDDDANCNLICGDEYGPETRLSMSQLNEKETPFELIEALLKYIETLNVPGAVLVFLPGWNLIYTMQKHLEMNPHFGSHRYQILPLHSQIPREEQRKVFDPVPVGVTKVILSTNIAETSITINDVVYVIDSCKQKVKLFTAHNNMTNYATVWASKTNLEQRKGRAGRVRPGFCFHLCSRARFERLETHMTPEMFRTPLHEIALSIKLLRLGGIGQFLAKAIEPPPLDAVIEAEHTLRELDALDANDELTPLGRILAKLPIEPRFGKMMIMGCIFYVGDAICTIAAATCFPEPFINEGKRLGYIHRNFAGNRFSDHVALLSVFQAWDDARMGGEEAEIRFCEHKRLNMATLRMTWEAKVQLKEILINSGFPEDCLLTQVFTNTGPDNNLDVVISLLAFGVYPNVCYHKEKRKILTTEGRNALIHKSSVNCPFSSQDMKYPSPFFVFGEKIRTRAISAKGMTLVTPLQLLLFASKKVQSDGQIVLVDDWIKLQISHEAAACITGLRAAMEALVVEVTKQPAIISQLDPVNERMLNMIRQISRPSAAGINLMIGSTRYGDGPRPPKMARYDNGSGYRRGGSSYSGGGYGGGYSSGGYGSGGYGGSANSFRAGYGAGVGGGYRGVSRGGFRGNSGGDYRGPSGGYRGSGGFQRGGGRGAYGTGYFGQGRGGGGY

- response (peptides number) (DHX9): 36
- response (peptides number) (SNF2H): 32
Substance: HA-FLAG-tagged mouse WT BAZ2A (from UniProt Q91YE5) W531G; Y532A

Reference: PMC10130768
